{"source": "paper PMC3321547", "about": "(Biochemistry, 2009)", "binders": {"B1": {"name": "NF910-952 (non-fusion kinesin tail peptide, residues 910-952) (peptide)", "chain": "not shown"}, "B2": {"name": "NF910-952mGFP (non-fusion kinesin tail peptide 910-952 with C-terminal mGFP) (domain or fragment)", "chain": "not shown"}, "B3": {"name": "TT927-952 (thioredoxin fusion of kinesin tail residues 927-952) (domain or fragment, Drosophila)", "chain": "AVRQKHLGRRGPQAQIAKPIRSGQGATS"}, "B4": {"name": "TT910-952mGFP (thioredoxin fusion of kinesin tail residues 910-952 with C-terminal mGFP) (domain or fragment)", "chain": "not shown"}}, "key": {"[1]": {"target": "T1, DKH412 (Drosophila kinesin heavy chain residues 1-412, dimeric head construct) (Drosophila, UniProt P17210 1-412)", "assay": "inhibition of basal steady state ATPase"}, "[2]": {"target": "T1, DKH412 (Drosophila kinesin heavy chain …)", "assay": "inhibition of mADP release from the heads"}, "[3]": {"target": "T1, DKH412 (Drosophila kinesin heavy chain …)", "assay": "inhibition of basal steady state ATPase", "remark": "listed apart in the source"}, "[4]": {"target": "T1, DKH412 (Drosophila kinesin heavy chain …)", "assay": "inhibition of mADP release from the heads", "remark": "listed apart in the source"}, "[5]": {"target": "T1, DKH412 (Drosophila kinesin heavy chain …)", "assay": "FRET or BRET"}, "[6]": {"target": "T1, DKH412 (Drosophila kinesin heavy chain …)", "assay": "co-sedimentation"}}, "note": "Values joined by “and” are separate entries in the source; they are usually repeats but may differ in a detail not shown here. Equal entries are not always repeated.", "data": [{"binder": "B1", "values": [{"measurement": "Kd", "setting": "[1]", "value": 66, "unit": "nM"}, {"measurement": "Kd", "setting": "[2]", "value": 330, "unit": "nM"}, {"measurement": "stoichiometry N", "setting": "[3]", "value": "1 tail peptide per two head peptides"}, {"measurement": "Kd", "setting": "[4]", "value": 21, "unit": "nM"}]}, {"binder": "B2", "values": [{"measurement": "Kd", "setting": "[5]", "value": 400, "unit": "nM"}, {"measurement": "koff", "setting": "[5]", "value": "~32", "unit": "s⁻¹"}, {"measurement": "observed rate of dissociation with a 5-fold excess of unlabelled tail (trace b)", "setting": "[5]", "value": 30.9, "unit": "s⁻¹"}, {"measurement": "observed rate of dissociation with a 20-fold excess of unlabelled tail (trace c)", "setting": "[5]", "value": 32.8, "unit": "s⁻¹"}]}, {"binder": "B3", "values": [{"measurement": "Kd", "setting": "[3]", "value": "< 100", "unit": "nM"}]}, {"binder": "B4", "values": [{"measurement": "stoichiometry N", "setting": "[6]", "value": "< 0.5 TT910-952mGFP per DKH412 monomer and ~0.5 tail peptide per head peptide"}]}]}
